According to patent US20240029824A1 (University of Washington, published 2024):

B3: DHT05 chain B (SEQ ID NO: 88) (designed binder)
chain: SEVEKRLLEIHRRVAESHRILVEVHEALIEALRGNSEEAKEKLKELVKELEKIIKEEEELLKELEKIVEEAS

How the values were obtained:
[1] = target: T1, DHT05_3arm_A62/B71/C62 chain B; assay: SEC and SAXS; chains of one ABC heterotrimer
T1 chain: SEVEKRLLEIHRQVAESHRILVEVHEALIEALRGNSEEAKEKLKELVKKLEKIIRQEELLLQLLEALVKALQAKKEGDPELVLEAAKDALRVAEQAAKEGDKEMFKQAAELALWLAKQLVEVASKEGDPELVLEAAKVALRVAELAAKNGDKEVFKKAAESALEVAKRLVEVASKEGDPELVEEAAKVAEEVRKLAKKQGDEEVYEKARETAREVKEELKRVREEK

[2] = target: T2, DHT05_3arm_A62/B71/C62 chain C; assay: SEC and SAXS; chains of one ABC heterotrimer
T2 chain: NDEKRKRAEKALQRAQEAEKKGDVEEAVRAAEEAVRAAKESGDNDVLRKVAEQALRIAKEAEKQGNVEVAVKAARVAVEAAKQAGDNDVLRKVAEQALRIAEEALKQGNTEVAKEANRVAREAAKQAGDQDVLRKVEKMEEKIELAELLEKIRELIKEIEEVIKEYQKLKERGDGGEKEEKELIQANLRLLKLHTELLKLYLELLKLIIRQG

[3] = target: T3, DHT05 chain C (SEQ ID NO: 98); assay: co-expression, SEC, SAXS; chains of one ABC heterotrimer
T3 chain: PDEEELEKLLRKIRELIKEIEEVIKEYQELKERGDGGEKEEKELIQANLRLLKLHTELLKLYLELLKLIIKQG

[4] = target: T4, DHT05 chain C (SEQ ID NO: 89); assay: SEC and SAXS; chains of one ABC heterotrimer
T4 chain: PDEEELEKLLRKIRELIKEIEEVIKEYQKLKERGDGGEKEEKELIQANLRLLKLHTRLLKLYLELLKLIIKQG

[5] = target: T5, DHT01-4arm-01 chain C; assay: SEC and SDS-PAGE; chains of one ABC heterotrimer
T5 construct: also called DHT01-4arm-02 chain C; C2-DHT01-01 chain B
T5 chain: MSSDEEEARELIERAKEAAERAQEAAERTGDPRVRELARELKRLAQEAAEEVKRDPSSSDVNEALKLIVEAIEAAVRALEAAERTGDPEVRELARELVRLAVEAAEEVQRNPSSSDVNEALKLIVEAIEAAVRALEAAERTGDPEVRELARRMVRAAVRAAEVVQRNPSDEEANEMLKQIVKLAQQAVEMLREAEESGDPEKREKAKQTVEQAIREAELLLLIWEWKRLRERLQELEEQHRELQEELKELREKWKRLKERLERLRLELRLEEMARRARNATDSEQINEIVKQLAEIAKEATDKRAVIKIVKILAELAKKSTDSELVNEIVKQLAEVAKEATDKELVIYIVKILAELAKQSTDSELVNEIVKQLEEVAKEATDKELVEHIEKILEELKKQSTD

[6] = target: T6, DHT01 chain B; assay: co-expression, IMAC and Strep-Tactin pull-down, SEC, native MS; chains of one ABC heterotrimer
T6 chain: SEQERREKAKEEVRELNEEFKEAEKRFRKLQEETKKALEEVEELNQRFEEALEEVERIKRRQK
Source text: (§1) We obtained genes encoding 20 coiled coil designed heterotrimers (DHTs) in a tricistronic E. coli expression vector with one chain having a 6×His-tag and a second chain having Strep-tag II, expressed the proteins, and purified by immobilized metal affinity chromatography (IMAC) and Strep-Tactin pull-down. All designs were soluble and for 6 designs, all three components were observed by liquid chromatography-mass spectrometry (LC-MS) after both pull-down approaches. Of these, 5 eluted as monodisperse peaks by SEC, but only 1 design (DHT01) was an exclusive ABC heterotrimer by native mass spectrometry (nMS) and had good agreement with the design model via small angle X-ray scattering (SAXS) (FIG. 2d, Table 7).
(§2) Samples were analyzed by online buffer exchange native mass spectrometry (nMS) to evaluate sample purity and accurately determine oligomeric states⁴². Multiple instruments were used as the analyses were carried out over the duration of the protein design process. The mass spectrometers used for detection were a Q Exactive™ UHMR modified with a surface-induced dissociation device and an Exactive™ Plus EMR modified with a selection quadrupole and a surface-induced dissociation device (Thermo Fisher Scientific)⁴³. The liquid chromatography systems used for the buffer exchange include a Vanquish™ Duo UHPLC and a Dionex™ Ultimate 3000 HPLC (Thermo Fisher Scientific). A heated electrospray ionization source (HESI-II, Thermo Fisher Scientific) with a spray voltage of ˜4 kV was used for ionization. Protein samples stored in Tris buffer were injected (0.1-2 ug) onto the LC system and exchanged at a flow rate of 100-200 uL*min⁻¹ into 200 mM ammonium acetate (mobile phase) prior to ionization. Buffer exchange columns used include self-packed columns with P6 polyacrylamide gel (Bio-Rad Laboratories) and prototype buffer exchange columns provided by Thermo Fisher Scientific (Sunnyvale, CA). Instrument parameters were optimized to allow for ion transmission while minimizing unintentional ion activation. […]

[7] = target: T7, DHT01 chain C; assay: as above
T7 chain: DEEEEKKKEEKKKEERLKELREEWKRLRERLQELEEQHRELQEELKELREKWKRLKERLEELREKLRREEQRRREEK
Source text: as §1, §2

[8] = target: T8, DHT05 chain C (SEQ ID NO: 95); assay: SEC and SAXS; chains of one ABC heterotrimer
T8 chain: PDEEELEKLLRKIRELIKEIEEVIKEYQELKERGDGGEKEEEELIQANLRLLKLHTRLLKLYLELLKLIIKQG

[9] = target: T9, DHT03_3arm_A21/B21/C53 chain C; assay: individually purified chains mixed 1:1:1, heat annealed, SEC
T9 chain: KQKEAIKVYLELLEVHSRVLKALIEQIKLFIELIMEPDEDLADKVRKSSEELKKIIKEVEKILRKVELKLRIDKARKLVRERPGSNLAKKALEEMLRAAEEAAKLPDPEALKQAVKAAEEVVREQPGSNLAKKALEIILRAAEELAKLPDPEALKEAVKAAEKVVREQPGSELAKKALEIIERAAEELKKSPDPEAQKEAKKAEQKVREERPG
Source text: (§3) To test this idea, an equimolar amount of individually purified A, B, and C of DHT03_2arm_A21/B21/C were mixed together and run through an annealing protocol (see Methods) to allow these interfaces to reassemble in the presence of all components. A monodisperse SEC peak was observed belonging to the ABC heterotrimer state as confirmed by overlap with its SEC co-expressed tricistronic version (FIG. 3d). To explore the use of this approach for building, four different repeat protein fusions to chain C were annealed in the same manner and all four 3-arm heterotrimers were successfully reconstituted. […] The successful reconstitution of these ABC assemblies, following the independent expression and purification of each chain and explicit mixing at a 1:1:1 ratio, enables their use in conjunction with other de novo proteins to mediate the specific assembly of multi-component assemblies. Independent expression also has considerable advantages over tricistronic expression from a gene synthesis perspective as DNA becomes much more difficult and expensive to synthesize with increasing construct size.
(§4) To test whether the DHT03 components could properly assemble in the presence of other helical hairpin containing chains, as would be the case for more complex assemblies, we chose DHD131, a designed helical hairpin unit heterodimer containing buried hydrogen bond networks¹². […] We evaluated simultaneous reconstitution of DHD131 and DHT03_3arm_A21/B21/C82, since the size difference between the two constructs (if correctly assembled) should be detected by SEC. We separately expressed and individually purified the two chains of the heterodimer and the three chains of the heterotrimer, mixed them at a 1:1:1:1:1 ratio, and carried out annealing and SEC as described above.

[10] = target: T10, DHT03_3arm_A21/B21/C59 chain C; assay: as above
T10 chain: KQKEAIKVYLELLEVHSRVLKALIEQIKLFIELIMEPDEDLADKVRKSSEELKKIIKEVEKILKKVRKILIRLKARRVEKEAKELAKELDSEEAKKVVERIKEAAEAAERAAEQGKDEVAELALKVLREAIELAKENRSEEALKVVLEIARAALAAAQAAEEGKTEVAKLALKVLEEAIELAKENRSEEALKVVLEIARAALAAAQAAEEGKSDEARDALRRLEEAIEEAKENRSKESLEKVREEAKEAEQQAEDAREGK
Source text: as §3, §4

[11] = target: T11, DHT03_3arm_A21/B21/C62 chain C; assay: as above
T11 chain: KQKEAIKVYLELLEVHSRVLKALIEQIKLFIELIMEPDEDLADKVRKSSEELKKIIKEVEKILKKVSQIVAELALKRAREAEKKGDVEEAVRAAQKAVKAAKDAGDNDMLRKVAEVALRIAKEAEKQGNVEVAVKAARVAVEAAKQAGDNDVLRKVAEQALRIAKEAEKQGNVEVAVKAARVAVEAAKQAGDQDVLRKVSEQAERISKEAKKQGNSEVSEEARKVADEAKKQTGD
Source text: as §3, §4

[12] = target: T12, DHT03_3arm_A21/B21/C82 chain C; assay: as above
T12 construct: also called chain C DHR82 fusion; chain C of C3-DHT03-01-DHR82 and C4-DHT03-01-DHR82
T12 chain: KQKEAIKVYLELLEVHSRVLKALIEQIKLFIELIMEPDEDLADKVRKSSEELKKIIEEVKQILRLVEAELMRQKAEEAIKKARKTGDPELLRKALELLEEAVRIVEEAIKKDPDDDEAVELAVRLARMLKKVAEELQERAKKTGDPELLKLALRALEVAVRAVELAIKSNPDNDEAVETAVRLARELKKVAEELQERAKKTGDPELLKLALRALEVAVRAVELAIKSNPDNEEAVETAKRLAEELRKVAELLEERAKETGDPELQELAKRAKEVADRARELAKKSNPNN
Source text: as §3, §4

[13] = target: B3; assay: SEC and SAXS; chains of one ABC heterotrimer

B1: DHT05_3arm_A62/B71/C62 chain A (designed binder)
chain: NDEKRKRAEKALQRAQEAEKKGDVEEAVRAAQEAVRAAKESGDNDVLRKVAEQALRIAEEAEKQGNVEVAVKAARVAVEAAKQAGDNDVLRKVAEQALRIAEEAEKQGNVKVAADAVEVAVEAATQAGDQDVLRKASEQAKKVAKEAKKKGDHKVAVKATTLAVKAEFAAIQEEIKKLEEEAKKAEKGNGKEEIKELLLELSELLARSLQLLAQQIEAIAKLIRG
[1]
  binding result: binds
[2]
  binding result: binds

B2: DHT05_2arm_A62/B14(2)-LHD101B14/C chain B (designed binder)
chain: SETEKRLLEIHRRVAESHRILVEVHEALIEALRGNSEEAKEKLKELVKKLEKIIREEEKLTVELAAKVAKSADDSEKVNEIVKTLAEIAKEATDKEQVIRIVKILAELAKQSTDSELVNEIVKQLAEVAKEATDKELVIYIVDILLKLAEQADDDELVEEIRKQLEEVAKEATDKELVEIIKAVIVLLVIISVVARMGVTMEIHKSGREVKVVIKGLHESQQEQLLEAVLRAAEEAGVRVRIRFKGDTVTIVVRG
[3]
  binding result: binds

## B3
[4]
  binding result: binds

B4: DHT01-4arm-02 chain B (designed binder)
chain: MSSDEEEARELIERAKEAAERAQEAAERTGDPRVRELARELKRLAQEAAEEVKRDPSSSDVNEALKLIVEAIEAAVRALEAAERTGDPEVRELARELVRLAVEAAEEVQRNPSSSDVNRALKLIVRAIEAAVQLLEHAEKSGDPEVRELARELVRRLVEAAEEVQRNPSDEQKNTQLRRLIAKAEVWLLNEEFKEAEKRFRKLQEETKKALEEVEELNQRFEEALEEVERIKRRQK
notes: Strep-tag II was added to the N-terminus of chain B of DHT01 arms; also called C2-DHT01-04 chain B
[5]
  binding result: binds

B5: DHT01 chain A (designed binder)
chain: DEEEKLRESLEEQKKRVKEIEREHEEIREALKRLQESVKRQEEALRQLG
notes: one chain of the co-expressed design carried a 6xHis-tag and a second a Strep-tag II
[6]
  binding result: binds
[7]
  binding result: binds

B6: DHT05_2arm_A62/B14/C chain B (designed binder)
chain: SEVEKRLLEIHREVAESHRILVEVHEALIEALRGNSEEAKEKLKELVKKLEKIIKEEEELLKKLEKIVVQALAKAAKQATDSRQVNEIVKQLAEIAKEATDKRLVIEIVKILAELAKQSTDSELVNEIVKQLAEVAKEATDKELVIYIVKILAELAKQSTDSELVNEIVKQLEEVAKEATDKELVEHIEKILEELKKQSTD
[8]
  binding result: binds

B7: DHT03_3arm chain B (B21, SEQ ID NO: 73) (designed binder)
chain: SEKEKVEELAQRIREQLPDTELAREAQELADEARKSDDSEALKVVYLALRIVQQLPDTELAREALELAKEAVKSTDSEQLEVVRLALEIVQLAPDTRLARAALKLAKEAVKSTDQEELKKVKAILRVASEVLKLEEEAKKSQEEVERLKQEVEKASKAGLDHEGDSRIFKKIHDVVTKQIKVILRLIAVYAELVAIIG
notes: separately expressed with an N- or C-terminal 6xHis-tag
[9]
  binding result: binds
[10]
  binding result: binds
[11]
  binding result: binds
[12]
  binding result: binds

B8: DHT05 chain A (designed binder)
chain: PEEKKEIKRTTEEVKEEFRKIQEEIKKLEEEAKKAEKGNGKEEIKELLLRLSELLARSLQLLAQQIEAIAKLIRG
[13]
  binding result: binds
